Results from the nanobody polyreactivity screen of Harvey et al. (2022).

Test: yeast display, Sf9 membrane polyspecificity reagent, FACS + sequencing; frameworks hold sequencing errors
How it was run: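 Genes from sorted yeast were amplified by colony PCR, read by MiSeq 2 × 250 sequencing and filtered on CDR length. These cells carried a synthetic nanobody library in Saccharomyces cerevisiae BJ5465 and were sorted by FACS into low and high (top ~1%) gates on anti-HA and streptavidin fluorescence. Polyreactivity is labelled according to the gate of origin.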

Sequence | polyreactivity (PSR sort gate)
QVQLVESGGGLVQAGGSLRLSCAASGITFDKNTMGWYRQEPGKVRELVAAISARGGSTYYADSVKGRFTISRDNSKNTVYLQMNSLKPEDTAVYYCAARSGYGPYRMDYWGQGTQVTVSS | high polyreactivity
QVQLVESGGGLVQAGGSLRLSCAASGITFDKYAMGWYRQAPGKERQLVAAISGSDGSTYYADSVKGRFTITRDNAKNTVYLQMNSLKPEDTAVYYCAAESEYAGTYEYDYWGQGSQVTVSS | low polyreactivity
QVQLVESGGGLVQAGGSLRLSCAASGITFDRYAMGWYRQAPGKERELVAAITSGGRTYYADSVKGRFTISRDNAKNTVYLQMNSLKPEDTAVYYCNATRGQYVGRYYYWGQGSQVTVSS | high polyreactivity
QVQLVESGGGLVQAGGSLRLSCAASGITFDSNAMGWYRQAPGKERELVAAISASGGRTYYADSVKGRFTISRDNAKNTVYLQMNSLKPEDTAVYYCNARYYVKHPLPYDYWGQGTQVTVSS | low polyreactivity
QVQLVESGGGLVQAGGSLRLSCAASGITFDSYAMGWYRQAPGKERELVAAISYSGGSTYYADSVKGRFTISRDNAKNTVYLQMNSLKPDDTAVYYCAAASDDDYDYWGQGTKVTVSS | low polyreactivity
QVQLVESGGGLVQAGGSLRLSCAASGITFDTYDMGWYRQAPGKERELVAAISSSGGSTYYADSVKGRFTISRDNAKNTVYLQMNSLKPEDTAVYYCAAVLLDDDYSYYYWGQGTQVTVSS | low polyreactivity
QVQLVESGGGLVQAGGSLRLSCAASGITFDVNAMGWYRQAPGKERELVAAITAGGNTYYADSVKGRFTISRDNAKNTVYLQLNSLKPEVTAVYYCATQSYYGFYDYDYWGQGTQVTVSS | low polyreactivity
QVQLVESGGGLVQAGGSLRLSCAASGITFDVYAMGWYRQAPGKERELVAAISGSGGSTYYADSVKGRFTISRDNAKNTVYLQMNSLKPEDTAVYYCAASGPDGQYLWYDYWGQGTQVTVSS | high polyreactivity
QVQLVESGGGLVQAGGSLRLSCAASGITFDYYAMGWYRQAPGKERELVAAISWGGGSTYYADSVKGRFTISRDNAKNTVYLQMNSLKPEDTAVYYCAADIVSSPSSYVPPGDYWGQGSQVTVSS | low polyreactivity
QVQLVESGGGLVQAGGSLRLSCAASGITFDYYDMGWYRQAPGKERELVATITSDGSTTYADSVKGRFTISRDNAKNTVYLQMNSLKPEDTAVYYCAAALHIYSYFYITYDYWGQGTQVTVSS | high polyreactivity
QVQLVESGGGLVQAGGSLRLSCAASGITFEGYAMGWFRPAPGKERELVAAIRSSGTSTYYADSVKGRFTISRDNAKTTVYLQMNSQKPVDTAVYYCNRARSSSRYDYWGQGTQVTVSS | low polyreactivity
QVQLVESGGGLVQAGGSLRLSCAASGITFEGYAMGWYRQAPGKEREFVAAITGSGSTTYYADSVKGRFTITRDNAKNTVYLQMNSLKPEDTAVYYCVAYVGSTYSAPEYYWGQGTQVTVSS | low polyreactivity
QVQLVESGGGLVQAGGSLRLSCAASGITFEGYAMGWYRQAPGNEREFVAAITSTGTSTRYADSVKGRFTISRDNAKNTVYLQMNSLKPEDTAVYYCAATSHFLSWHLRYYWGQGTQVTVSS | high polyreactivity
QVQLVESGGGLVQAGGSLRLSCAASGITFEIYAMGWYRQAPGKERELVAAITWRGGSTYYADSVKGRFTISRDNAKNTVYLQMNSLKPDDTAVYYCAAEQYSGEDWGDYWGQGTQVTVSS | low polyreactivity
QVQLVESGGGLVQAGGSLRLSCAASGITFEPYAMGWYRQAPGKEREFVADITWSGGSTYYADSVKGRFTISRDNAMNTGYLQMNSLKPEDTAVYYCAADGWTSYWSDYWGQGTQVTVSS | low polyreactivity
QVQLVESGGGLVQAGGSLRLSCAASGITFFAYAMGWYRQAPGKERELVAAISTDGGSTYYADSVKGRFTISRDNAKNTVYLQMNSLKPEDTAVYYCAAKQRYVRTRGMDYWGQGTQVTVSS | high polyreactivity
QVQLVESGGGLVQAGGSLRLSCAASGITFFDNAMGWYRQAPGKERELVATITGGGASTYYADSVKGRFTISRDNAKNTVYLLMNSLKPEDTAVYYCAADYVDGVYLEYGYWGQGTQVTVSS | low polyreactivity
QVQLVESGGGLVQAGGSLRLSCAASGITFFRYAMGWYRQAPGKERELVAAITTSGSSTFYADSVKGRFTISRDNAKNTVYLLMNSLKPEDTAVYYCAAVFRWARLYEYDYWGQGTQVTVSS | high polyreactivity
QVQLVESGGGLVQAGGSLRLSCAASGITFFRYTMGWYRQAPGKEREFVADISRSGDTTYYADSVKGRFTISRDNAKNSVYLQMNSLKPEDTAVYYCARLTRSGEYGYWGQGTQVTVSS | high polyreactivity
QVQLVESGGGLVQAGGSLRLSCAASGITFFWYAMGWYRQAPGKERELVARITSDGSTSYADSVKGRFTISRDNAKNTVYLQMNSLKREDTAVYYCAADYSYIYQSWSGYENDYWGQGTQVTVSS | high polyreactivity
QVQLVESGGGLVQAGGSLRLSCAASGITFGDNAMGWYRQAPGKERELVAAITLSDVDTYADSVKGRFTISRDNAKNTVYLQMNSLKPEDTAVYYCAADYDFFSSKRFDYWGQGTQVTVSS | low polyreactivity
QVQLVESGGGLVQAGGSLRLSCAASGITFGFNAMGWYRQAPGKERELVAAITWSVGRTYYADSVKGRFTISRDTAKNTVYLQMNSLKPEDTAVYYCAKDFEAGDDYFAYDYWGQGTQVTVSS | low polyreactivity

Sequence | polyreactivity (PSR sort gate)
QVQLVESGGGLVQAGGSLRLSCAASGITFGGNAMGWYRQATGKERELVAGINRSGVSTYYADSVKGRFTISRDNAKNTVYFQMNSLKPEDTAVYYCATGYFSWIYGYYYWGQGTQVTVSS | high polyreactivity
QVQLVESGGGLVQAGGSLRLSCAASGITFGGYAMGWYRQAPGKERELVASIRSGSTTNYADSVKGRFTISRDNAKNTVYLQMNSLKPEDTAVYYCAARNFRNRYGYWGQGTQVTVSS | high polyreactivity
QVQLVESGGGLVQAGGSLRLSCAASGITFGIYVMGCYRQAPGKEREFVATMSRSDDNTYYADSVKGRFTISRDNAKNTVYLQRNSLKPEDTAVYYCAADGVISAWYSSRDDYWGQGTQVTVSS | low polyreactivity
QVQLVESGGGLVQAGGSLRLSCAASGITFGNYAMYWVRQAPGKERELVAAINYSRGSTYYADSVKGRFTISRDNAKNTVYLQMNSLKPQDTAVYYCAADTYPASYDYWGQGTQVTVSS | high polyreactivity
QVQLVESGGGLVQAGGSLRLSCAASGITFGRNTMGWYRQAPGKERELVAAIDSGGNTYADSVKGRFTISRDNAKNTVFLQMNSLKPEDTAVYYCAVDGGEFSSYGYWGQGTQVTVSS | low polyreactivity
QVQLVESGGGLVQAGGSLRLSCAASGITFGRYALGWYRQAPGKERELVATITVNGGRTYYADSVKGRFTISRDNAKNTVYLQMNSLKPEDTAVYYCAAERRNSYVLLFKYNYWGQGTQVTVSS | low polyreactivity
QVQLVESGGGLVQAGGSLRLSCAASGITFGRYAMGWYRQAPGKERELVAAISWSGGSTYYADSVKGRFTISRDNAKNTVYLQMNSLKPEDTAVYYCATRIRTVAYNYWGQGTQVTVSS | high polyreactivity
QVQLVESGGGLVQAGGSLRLSCAASGITFGSKVMGWYRQPPGKEWEFVAVINWSTGSTYYADSVKGRFTISRDNAKNTVYLQMNSLKPEDTAVYYCNTDSGNEWTSYDYWGQGTQVTVSS | low polyreactivity
QVQLVESGGGLVQAGGSLRLSCAASGITFGSYAMGWYRQAPGKERELVAAIRWRGGNTYYADSVKGRFTISRDNAKNTVYLQMNSLKPEDTAVYYCAARRYGYRYDQPYSNDYWGQGTLVTVSS | low polyreactivity
QVQLVESGGGLVQAGGSLRLSCAASGITFGSYAMGWYRQAPGKERELVAAITSGGGTNYADSVKGRFTISRDNAKNTVYLQMNSLKPEDTAVYYCAARYYYLGTRYGYWGQGTQVTVSS | low polyreactivity
QVQLVESGGGLVQAGGSLRLSCAASGITFGVYGKGWYRQEPGKERELVAAISRTGGSTYYADSVKGRFTISRDNAKNTVYLQMNSLKPEDTAVYYCNARPVGRVIGDYWGQGTQVTVSS | high polyreactivity
QVQLVESGGGLVQAGGSLRLSCAASGITFGWYAMGWYRPAPGKERELVAAISWSGGTTYYADSVKGRFTISRDNAKNTVYLQMNSLKPEDTAVYYCAATWYYPTVYAGNYWGQGTQVTVSS | high polyreactivity
QVQLVESGGGLVQAGGSLRLSCAASGITFGYYAMGWSRQAPGKERELVAAINWRGGNTYYADSVKGRFTISRDNAKNTVYLQMNSLKPEDTAVYYCNALYKRYTDYDYWGQGSQVTVSS | high polyreactivity
QVQLVESGGGLVQAGGSLRLSCAASGITFGYYAMGWYRQAPGKERELVAAITWSGSSTYYADSVKGRFTISRDNAKNTVYLQMNSLKPEDTAVYYCAAEYSSHYAVWRGHSGYWGQGTQVTVSS | high polyreactivity
QVQLVESGGGLVQAGGSLRLSCAASGITFHRYDMGWYRQAPGKERELVADITWSGGSTYYADSVKGRFTISRDNAKNTVYLQMNSLKPEDTSVYYCAADASTYTYTPYDYWGQGTQVTVSS | low polyreactivity
QVQLVESGGGLVQAGGSLRLSCAASGITFHYKAMGWYIQAPGKERELVATIRRGGITKYADSVKGRFTISRDNAKNTVYLQMNSLKPEDTAVYYCAAGYYSHGAWFDHWGEGTQVTVSS | low polyreactivity
QVQLVESGGGLVQAGGSLRLSCAASGITFIGYAMGWYRQAPGKERELVAAITTNGGGTYYADSVKWRFTISRDNAKKTVYLQMNSLKPEDTAVYYCNAVKQRSSIFDYWGQGSQVTVSS | low polyreactivity
QVQLVESGGGLVQAGGSLRLSCAASGITFILNPMGWNRQAPGKEREFVAAISTSGGNTYYADSVKGRFTISRDYAKYTVYLEMNSLKPEDTAVYYCNADWGVVYISYSPEYDYWGHGTQVTVSS | low polyreactivity
QVQLVESGGGLVQAGGSLRLSCAASGITFINYDMGWYRQAPGKERELVAAISQIGTSTYYADSVKGRCTISRDNAKNTVYLQMNSLKPEDTAVYYCNARYISTGFRYNYWGQGTQVTVSS | high polyreactivity
QVQLVESGGGLVQAGGSLRLSCAASGITFISYAMGWYRQAPGKERELVAGITSDDSTSYADSVKGRFTISRDNAKNTVYLQMNSVKPEDTAVYYCAARSYTLRTSTGRLYRYYYWGQGTQVTVSS | high polyreactivity
QVQLVESGGGLVQAGGSLRLSCAASGITFIVNTMGWYRQAPGKEREFVATISANSDGTYYADSVKGRFTISRDNAKNTVYLQMNSLKPEDTAVYYWGQGTQVTVSS | low polyreactivity
